According to patent publication US20220324974A1 (SORRENTO THERAPEUTICS, published 2022):

Assays:
[1] = molecular target: T1, CD38 expressed on human tumor cell lines (RPMI8226, MM1.R and other CD38(+) lines) (human, UniProt P28907 1-300); test: cell-based or functional assay
[2] = molecular target: T1, CD38 expressed on human tumor cell …; test: cell-based or functional assay; remark: listed apart in the source
[3] = molecular target: T2, CD3 antigen on primary human T cells (human, UniProt P07766 23-207; P04234 22-171; P09693 23-182); test: flow cytometry on freshly isolated primary human T cells, anti-human Fc-APC secondary, GeoMean RL1-H of singlets
T2 construct: CD3 is a multi-chain complex; also called CD3-expressing T cells; CD3-expressing CD38-minus T cells

[4] = molecular target: T3, BCMA target antigen (Acro Biosystems catalog # BCA-H522g) (UniProt Q02223 1-54); test: SPR Biacore, antibody captured by anti-Fc, antigen as analyte, 1:1 model
T3 construct: range 1-54; Bought protein; also called BMCA target antigen; BCMA antigen
T3 sequence (looked up): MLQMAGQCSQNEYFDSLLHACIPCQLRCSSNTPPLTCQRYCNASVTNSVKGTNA

[5] = molecular target: T4, BCMA expressed on MM1.R myeloma cells (UniProt Q02223 1-184); test: cell-based or functional assay
T4 sequence (looked up): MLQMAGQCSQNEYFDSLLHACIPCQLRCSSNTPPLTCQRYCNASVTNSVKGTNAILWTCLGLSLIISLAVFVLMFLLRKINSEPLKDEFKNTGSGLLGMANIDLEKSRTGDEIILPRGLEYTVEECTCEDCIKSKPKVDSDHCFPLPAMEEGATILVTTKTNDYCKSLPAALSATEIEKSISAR

[6] = molecular target: T2, CD3 antigen on primary human T cells; test: flow cytometry on freshly isolated primary human T cells, anti-human Fc-APC secondary, GeoMean RL1-H of singlets; remark: listed apart in the source
[7] = molecular target: T2, CD3 antigen on primary human T cells; test: flow cytometry on CD38-minus primary human T cells, anti-human Fc-APC secondary, GeoMean RL1-H of singlets
[8] = molecular target: T2, CD3 antigen on primary human T cells; test: flow cytometry on CD38-minus primary human T cells

B1: Kv5.1 CD38/CD3 three-chain in-tandem bispecific antibody (bispecific antibody)
chain 1: QVQLVESGGGLVKPGGSLRLSCAASGFTFSDDYMSWIRQAPGKGLEWVASVSNGRPTTYYADSVRGRFTISRDNAKNSLYLQMNSLRAEDTAVYYCAREGWSGEFTDWGQGTLVTVSSASTKGPSVFPLAPSSKSTSGGTAALGCLVKDYFPEPVTVSWNSGALTSGVHTFPAVLQSSGLYSLSSVVTVPSSSLGTQTYICNVNHKPSNTKVDKRVEPKSCGGSGSGSGGSSGGGSGGGGSQVQLVQSGAEVKKPGASVKVSCKASGYTFISYTMHWVRQAPGQGLEWMGYINPRSGYTHYNQKLKDKATLTADKSASTAYMELSSLRSEDTAVYYCARSAYYDYDGFAYWGQGTLVTVSSASTKGPSVFPLAPSSKSTSGGTAALGCLVKDYFPEPVTVSWNSGALTSGVHTFPAVLQSSGLYSLSSVVTVPSSSLGTQTYICNVNHKPSNTKVDKRVEPKSSDKTHTCPPCPAPEAAGGPSVFLFPPKPKDTLMISRTPEVTCVVVDVSHEDPEVKFNWYVDGVEVHNAKTKPREEQYNSTYRVVSVLTVLHQDWLNGKEYKCKVSNKALPAPIEKTISKAKGQPREPQVYTLPPSREEMTKNQVSLSCAVKGFYPSDIAVEWESNGQPENNYKTTPPVLDSDGSFFLVSKLTVDKSRWQQGNVFSCSVMHEALHNHYTQKSLSLSPGK
chain 2: not shown
chain 3: DIQMTQSPSSLSASVGDRVTITCSASSSVSYMNWYQQKPGKAPKRLIYDTSKLASGVPSRFSGSGSGTDFTLTISSLQPEDFATYYCQQWSSNPPTFGGGTKVEIKRTVAAPSVFIFPPSDEQLKSGTASVVCLLNNFYPREAKVQWKVDNALQSGNSQESVTEQDSKDSTYSLSSTLTLSKADYEKHKVYACEVTHQGLSSPVTKSFNRGESGGSGGDKTHTCPPCPAPEAAGGPSVFLFPPKPKDTLMISRTPEVTCVVVDVSHEDPEVKFNWYVDGVEVHNAKTKPREEQYNSTYRVVSVLTVLHQDWLNGKEYKCKVSNKALPAPIEKTISKAKGQPREPQVYTLPPSREEMTKNQVSLWCLVKGFYPSDIAVEWESNGQPENNYKTTPPVLDSDGSFFLYSKLTVDKSRWQQGNVFSCSVMHEALHNHYTQKSLSLSPGK
IC50 pM, TAA-dependent cytotoxicity towards RPMI8226 cells [1]: 4.2 pM
IC50 pM, TAA-dependent cytotoxicity (MM1.R target cells by the text) [2]: 3 pM

B2: Kv4.33 BCMA/CD3 three-chain non-tandem bispecific antibody (bispecific antibody)
chain 1: EVQLVESGGGLVKPGGSLRLSCAASGFTSSTAWMSWVRQAPGKGLEWVGRIKSKSDGGTTDYAAPVKGRFTISRDDSKNTLFLQMNSLKTEDTAVYYCAKGGGTYGYWGQGTTVTVSSASTKGPSVFPLAPSSKSTSGGTAALGCLVKDYFPEPVTVSWNSGALTSGVHTFPAVLQSSGLYSLSSVVTVPSSSLGTQTYICNVNHKPSNTKVDKRVEPKSSDKTHTCPPCPAPEAAGGPSVFLFPPKPKDTLMISRTPEVTCVVVDVSHEDPEVKFNWYVDGVEVHNAKTKPREEQYNSTYRVVSVLTVLHQDWLNGKEYKCKVSNKALPAPIEKTISKAKGQPREPQVYTLPPSREEMTKNQVSLSCAVKGFYPSDIAVEWESNGQPENNYKTTPPVLDSDGSFFLVSKLTVDKSRWQQGNVFSCSVMHEALHNHYTQKSLSLSPGKGSGGSSGGGSGGGGSQVQLVQSGAEVKKPGASVKVSCKASGYTFISYTMHWVRQAPGQGLEWMGYINPRSGYTHYNQKLKDKATLTADKSASTAYMELSSLRSEDTAVYYCARSAYYDYDGFAYWGQGTLVTVSSASTKGPSVFPLAPSSKSTSGGTAALGCLVKDYFPEPVTVSWNSGALTSGVHTFPAVLQSSGLYSLSSVVTVPSSSLGTQTYICNVNHKPSNTKVDKRVEPKSC
chain 2: SYVLTQPASVSGSPGQSVTISCTGTSSAHGGHYYVSWYQQHPGKAPKLMIYDVSNRPSGVSNRFSGSKSGNTASLTISGLQAEDEADYYCGSYTSSGSYVFGTGTKLTVLGQPKAAPSVTLFPPSSEELQANKATLVCLISDFYPGAVTVAWKADSSPVKAGVETTTPSKQSNNKYAASSYLSLTPEQWKSHRSYSCQVTHEGSTVEKTVAPTESSGGSGGDKTHTCPPCPAPEAAGGPSVFLFPPKPKDTLMISRTPEVTCVVVDVSHEDPEVKFNWYVDGVEVHNAKTKPREEQYNSTYRVVSVLTVLHQDWLNGKEYKCKVSNKALPAPIEKTISKAKGQPREPQVYTLPPSREEMTKNQVSLWCLVKGFYPSDIAVEWESNGQPENNYKTTPPVLDSDGSFFLYSKLTVDKSRWQQGNVFSCSVMHEALHNHYTQKSLSLSPGK
chain 3: DIQMTQSPSSLSASVGDRVTITCSASSSVSYMNWYQQKPGKAPKRLIYDTSKLASGVPSRFSGSGSGTDFTLTISSLQPEDFATYYCQQWSSNPPTFGGGTKVEIKRTVAAPSVFIFPPSDEQLKSGTASVVCLLNNFYPREAKVQWKVDNALQSGNSQESVTEQDSKDSTYSLSSTLTLSKADYEKHKVYACEVTHQGLSSPVTKSFNRGEC
notes: also called Kv4.33 (3XGS) BCMA/CD3
EC50 (read off the curve) [3]: ~2 µg/mL
Kd [4]: 47.7 nM
koff [4]: 0.0364 s⁻¹
kon [4]: 762000 M⁻¹ s⁻¹
IC50 pM, TAA-dependent cytotoxicity (MM1.R target cells by the text) [5]: 134 pM
EC50 (read off the curve) [6]: ~2 µg/mL

B3: Kv4.33 (4XGS) CD38/CD3 three-chain non-tandem bispecific antibody (bispecific antibody)
heavy: QVQLVESGGGLVKPGGSLRLSCAASGFTFSDDYMSWIRQAPGKGLEWVASVSNGRPTTYYADSVRGRFTISRDNAKNSLYLQMNSLRAEDTAVYYCAREGWSGEFTDWGQGTLVTVSSASTKGPSVFPLAPSSKSTSGGTAALGCLVKDYFPEPVTVSWNSGALTSGVHTFPAVLQSSGLYSLSSVVTVPSSSLGTQTYICNVNHKPSNTKVDKRVEPKSSDKTHTCPPCPAPEAAGGPSVFLFPPKPKDTLMISRTPEVTCVVVDVSHEDPEVKFNWYVDGVEVHNAKTKPREEQYNSTYRVVSVLTVLHQDWLNGKEYKCKVSNKALPAPIEKTISKAKGQPREPQVYTLPPSREEMTKNQVSLSCAVKGFYPSDIAVEWESNGQPENNYKTTPPVLDSDGSFFLVSKLTVDKSRWQQGNVFSCSVMHEALHNHYTQKSLSLSPGKGGSGSGSGGSSGGGSGGGGSQVQLVQSGAEVKKPGASVKVSCKASGYTFISYTMHWVRQAPGQGLEWMGYINPRSGYTHYNQKLKDKATLTADKSASTAYMELSSLRSEDTAVYYCARSAYYDYDGFAYWGQGTLVTVSSASTKGPSVFPLAPSSKSTSGGTAALGCLVKDYFPEPVTVSWNSGALTSGVHTFPAVLQSSGLYSLSSVVTVPSSSLGTQTYICNVNHKPSNTKVDKRVEPKSC
light 1: not shown
light 2: DIQMTQSPSSLSASVGDRVTITCSASSSVSYMNWYQQKPGKAPKRLIYDTSKLASGVPSRFSGSGSGTDFTLTISSLQPEDFATYYCQQWSSNPPTFGGGTKVEIKRTVAAPSVFIFPPSDEQLKSGTASVVCLLNNFYPREAKVQWKVDNALQSGNSQESVTEQDSKDSTYSLSSTLTLSKADYEKHKVYACEVTHQGLSSPVTKSFNRGEC
EC50 (read off the curve) [7]: ~2 µg/mL

B4: Kv6.1 (7GS) CD38/CD3 two-chain in-tandem bispecific antibody with non-cleavable GS second linker (bispecific antibody)
heavy: QVQLVESGGGLVKPGGSLRLSCAASGFTFSDDYMSWIRQAPGKGLEWVASVSNGRPTTYYADSVRGRFTISRDNAKNSLYLQMNSLRAEDTAVYYCAREGWSGEFTDWGQGTLVTVSSASTKGPSVFPLAPSSKSTSGGTAALGCLVKDYFPEPVTVSWNSGALTSGVHTFPAVLQSSGLYSLSSVVTVPSSSLGTQTYICNVNHKPSNTKVDKRVEPKSCGGSGSGSGGSSGGGSGGGGSQVQLVQSGAEVKKPGASVKVSCKASGYTFISYTMHWVRQAPGQGLEWMGYINPRSGYTHYNQKLKDKATLTADKSASTAYMELSSLRSEDTAVYYCARSAYYDYDGFAYWGQGTLVTVSSASTKGPSVFPLAPSSKSTSGGTAALGCLVKDYFPEPVTVSWNSGALTSGVHTFPAVLQSSGLYSLSSVVTVPSSSLGTQTYICNVNHKPSNTKVDKRVEPKSSDKTHTCPPCPAPEAAGGPSVFLFPPKPKDTLMISRTPEVTCVVVDVSHEDPEVKFNWYVDGVEVHNAKTKPREEQYNSTYRVVSVLTVLHQDWLNGKEYKCKVSNKALPAPIEKTISKAKGQPREPQVYTLPPSREEMTKNQVSLSCAVKGFYPSDIAVEWESNGQPENNYKTTPPVLDSDGSFFLVSKLTVDKSRWQQGNVFSCSVMHEALHNHYTQKSLSLSPGK
light: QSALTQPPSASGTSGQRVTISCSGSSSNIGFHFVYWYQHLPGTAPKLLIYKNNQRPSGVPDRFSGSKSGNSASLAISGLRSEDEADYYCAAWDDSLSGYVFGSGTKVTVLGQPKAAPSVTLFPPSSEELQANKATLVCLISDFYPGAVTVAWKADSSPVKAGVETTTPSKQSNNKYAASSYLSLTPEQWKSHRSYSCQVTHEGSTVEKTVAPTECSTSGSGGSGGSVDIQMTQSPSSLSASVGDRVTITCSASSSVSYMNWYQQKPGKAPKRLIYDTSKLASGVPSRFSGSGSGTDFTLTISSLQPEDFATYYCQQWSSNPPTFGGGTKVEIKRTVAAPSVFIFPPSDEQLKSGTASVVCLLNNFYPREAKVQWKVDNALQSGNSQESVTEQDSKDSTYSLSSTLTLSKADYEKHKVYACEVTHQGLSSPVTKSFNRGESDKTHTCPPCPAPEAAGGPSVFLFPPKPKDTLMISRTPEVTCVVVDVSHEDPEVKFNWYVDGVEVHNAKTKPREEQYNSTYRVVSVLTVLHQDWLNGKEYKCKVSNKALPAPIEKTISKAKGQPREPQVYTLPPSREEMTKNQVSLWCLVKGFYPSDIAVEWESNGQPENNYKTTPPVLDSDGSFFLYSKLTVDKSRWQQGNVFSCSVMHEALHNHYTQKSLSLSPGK
notes: also called control non-cleavable bispecific antibody having an in-tandem structure (Kv6.1)
fold reduction of binding to CD3 [8]: > 100 fold

B5: Kv6.2 (7GS) CD38/CD3 two-chain non-tandem bispecific antibody with non-cleavable GS second linker (bispecific antibody)
heavy: QVQLVESGGGLVKPGGSLRLSCAASGFTFSDDYMSWIRQAPGKGLEWVASVSNGRPTTYYADSVRGRFTISRDNAKNSLYLQMNSLRAEDTAVYYCAREGWSGEFTDWGQGTLVTVSSASTKGPSVFPLAPSSKSTSGGTAALGCLVKDYFPEPVTVSWNSGALTSGVHTFPAVLQSSGLYSLSSVVTVPSSSLGTQTYICNVNHKPSNTKVDKRVEPKSSDKTHTCPPCPAPEAAGGPSVFLFPPKPKDTLMISRTPEVTCVVVDVSHEDPEVKFNWYVDGVEVHNAKTKPREEQYNSTYRVVSVLTVLHQDWLNGKEYKCKVSNKALPAPIEKTISKAKGQPREPQVYTLPPSREEMTKNQVSLSCAVKGFYPSDIAVEWESNGQPENNYKTTPPVLDSDGSFFLVSKLTVDKSRWQQGNVFSCSVMHEALHNHYTQKSLSLSPGKGSGGSSGGGSGGGGSQVQLVQSGAEVKKPGASVKVSCKASGYTFISYTMHWVRQAPGQGLEWMGYINPRSGYTHYNQKLKDKATLTADKSASTAYMELSSLRSEDTAVYYCARSAYYDYDGFAYWGQGTLVTVSSASTKGPSVFPLAPSSKSTSGGTAALGCLVKDYFPEPVTVSWNSGALTSGVHTFPAVLQSSGLYSLSSVVTVPSSSLGTQTYICNVNHKPSNTKVDKRVEPKSC
light: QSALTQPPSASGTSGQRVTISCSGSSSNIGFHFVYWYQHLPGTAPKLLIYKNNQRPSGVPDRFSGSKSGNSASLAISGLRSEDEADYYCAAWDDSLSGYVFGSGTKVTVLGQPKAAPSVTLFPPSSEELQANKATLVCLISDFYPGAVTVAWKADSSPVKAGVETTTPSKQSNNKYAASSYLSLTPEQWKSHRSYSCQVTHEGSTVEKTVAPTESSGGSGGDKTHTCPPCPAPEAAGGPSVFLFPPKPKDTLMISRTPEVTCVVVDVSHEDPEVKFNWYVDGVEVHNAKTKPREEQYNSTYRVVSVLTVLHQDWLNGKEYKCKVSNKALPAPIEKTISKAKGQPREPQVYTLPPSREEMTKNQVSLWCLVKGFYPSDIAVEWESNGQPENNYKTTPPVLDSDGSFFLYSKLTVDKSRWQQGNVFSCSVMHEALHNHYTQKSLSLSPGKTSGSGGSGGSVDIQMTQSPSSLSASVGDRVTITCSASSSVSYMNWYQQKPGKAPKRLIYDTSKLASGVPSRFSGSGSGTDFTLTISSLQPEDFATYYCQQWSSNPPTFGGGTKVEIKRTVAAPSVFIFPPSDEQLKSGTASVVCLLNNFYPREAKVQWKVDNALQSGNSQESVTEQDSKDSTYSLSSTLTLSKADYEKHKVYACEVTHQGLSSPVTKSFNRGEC
notes: also called control non-cleavable bispecific antibody having a non-tandem structure (Kv6.2)
fold reduction of binding to CD3 [8]: > 1000 fold
